Assays:
Assay in all cases: co-IP, anti-FLAG, lysate of cells with C-FLAG B3GNT2; mass spectrometry
RBM39 = target: T1, RBM39 (human, UniProt Q14498-3 2-508, limits assumed)
T1 construct: also called NP_001310351.1 (+3)
T1 sequence (looked up): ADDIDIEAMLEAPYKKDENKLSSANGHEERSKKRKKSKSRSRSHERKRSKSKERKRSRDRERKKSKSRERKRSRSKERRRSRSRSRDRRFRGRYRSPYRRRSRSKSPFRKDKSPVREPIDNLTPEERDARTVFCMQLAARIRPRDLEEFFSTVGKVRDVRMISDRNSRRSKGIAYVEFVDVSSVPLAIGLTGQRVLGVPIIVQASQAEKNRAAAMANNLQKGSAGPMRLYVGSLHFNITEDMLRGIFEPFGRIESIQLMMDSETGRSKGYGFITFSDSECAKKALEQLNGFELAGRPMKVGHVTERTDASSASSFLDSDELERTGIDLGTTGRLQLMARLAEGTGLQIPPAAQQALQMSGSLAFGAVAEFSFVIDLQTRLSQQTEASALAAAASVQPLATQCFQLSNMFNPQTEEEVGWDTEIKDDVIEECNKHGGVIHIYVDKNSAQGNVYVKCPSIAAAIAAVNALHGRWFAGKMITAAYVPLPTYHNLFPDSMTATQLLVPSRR
Description: (§1) Cells were plated in 10-cm cell culture dishes and grown to 60-80% confluency. For each condition, two biological replicates were harvested for co-IP. Cells were washed with PBS and 4 mL of lysis buffer (20 mM HEPES, 1% Triton X-100, 150 mM NaCl, 1 mM EDTA, and 10% glycerol) containing protease inhibitor cocktail was added. Cells were scraped and lysate was incubated at 4° C. under rotary agitation for 1 h. Lysate was centrifuged at 14,000×g for 10 min at 4° C. Supernatant was transferred to a new tube and an aliquot was taken as the input. […] For Western blots, 10 μg/mL Chicken Anti-FLAG (Aves labs ET-DY100) and IgY control (R&D Systems AB-101-C) antibodies were biotinylated (Thermo Fisher Scientific 90407) and added to the respective conditions. Lysates with antibodies were incubated at 4° C. under rotary agitation overnight. For each mL of lysate, 50 μL of Pierce Protein A/G Magnetic Beads (Mass spectrometry; Thermo Fisher Scientific 88803) or Pierce Streptavidin Magnetic Beads (Western blot; Thermo Fisher Scientific 88817) was washed twice with lysis buffer. Lysates with antibodies were added to the beads and incubated at 4° C. under rotary agitation for 4 h. Beads were washed with lysis buffer 3 times and resuspended in lysis buffer for storage.
(§2) Magnetic beads were resuspended in 100 mM Tris pH 7.8, reduced, alkylated and digested with trypsin at 37° ° C. overnight. This solution was subjected to solid phase extraction to concentrate the peptides and remove unwanted reagents followed by injection onto a Shimadzu HPLC with fraction collector. Eight fractions were collected and after concentration were injected on a Waters NanoAcquity HPLC equipped with a self-packed Aeris 3 μm C18 analytical column 0.075 mm by 20 cm, (Phenomenex). Peptides were eluted using standard reverse-phase gradients. The effluent from the column was analyzed using a Thermo Orbitrap Elite mass spectrometer (nanospray configuration) operated in a data dependent manner for 54 minutes. The resulting fragmentation spectra were correlated against the known database using Proteome Discover 1.4 (Thermo Fisher Scientific).

PRBP1 = target: T2, PRBP1 (human, UniProt P26599 1-557)
T2 construct: Label 'PRBP1' is probably a misprint of PTBP1; also called NP_002810.1 (+4)
T2 sequence (P26599 whole entry): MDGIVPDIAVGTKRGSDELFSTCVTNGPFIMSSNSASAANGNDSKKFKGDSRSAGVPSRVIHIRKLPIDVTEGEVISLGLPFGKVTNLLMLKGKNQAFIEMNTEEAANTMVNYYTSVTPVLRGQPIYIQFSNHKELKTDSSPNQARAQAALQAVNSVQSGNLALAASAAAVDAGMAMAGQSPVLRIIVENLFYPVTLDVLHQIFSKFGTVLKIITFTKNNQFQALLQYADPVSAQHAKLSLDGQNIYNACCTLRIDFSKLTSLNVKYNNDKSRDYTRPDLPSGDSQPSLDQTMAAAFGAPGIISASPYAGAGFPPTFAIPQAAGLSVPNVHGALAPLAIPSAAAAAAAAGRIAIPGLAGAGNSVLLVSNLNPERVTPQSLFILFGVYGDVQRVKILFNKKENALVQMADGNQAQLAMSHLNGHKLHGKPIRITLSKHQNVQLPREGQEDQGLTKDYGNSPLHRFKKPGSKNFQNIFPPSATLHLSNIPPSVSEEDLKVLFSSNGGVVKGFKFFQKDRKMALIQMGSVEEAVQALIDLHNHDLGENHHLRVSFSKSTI
Description: as §1, §2

HNRNPK = target: T3, HNRNPK (human, UniProt P61978-3 1-440, limits assumed)
T3 construct: also called NP_001305115.1 (+1)
T3 sequence (P61978 other isoform, or with tags, fused parts or gaps limits assumed): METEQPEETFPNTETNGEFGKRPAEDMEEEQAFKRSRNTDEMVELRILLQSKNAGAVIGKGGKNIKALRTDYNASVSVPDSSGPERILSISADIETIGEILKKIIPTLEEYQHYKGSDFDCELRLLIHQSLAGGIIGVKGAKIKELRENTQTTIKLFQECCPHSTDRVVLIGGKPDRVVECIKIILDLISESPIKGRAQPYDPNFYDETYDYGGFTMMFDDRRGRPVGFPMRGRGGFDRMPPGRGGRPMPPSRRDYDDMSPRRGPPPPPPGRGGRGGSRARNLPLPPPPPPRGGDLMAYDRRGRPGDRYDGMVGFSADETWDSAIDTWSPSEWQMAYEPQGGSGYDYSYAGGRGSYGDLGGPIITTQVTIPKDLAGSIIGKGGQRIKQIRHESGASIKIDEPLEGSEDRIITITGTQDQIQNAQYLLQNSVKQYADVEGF
Description: as §1, §2

FAU = FAU (human, UniProt P62861 75-133)
Description: as §1, §2

CAT = target: T4, CAT (human, UniProt P04040 2-527)
T4 construct: also called NP_001743.1
T4 sequence (looked up): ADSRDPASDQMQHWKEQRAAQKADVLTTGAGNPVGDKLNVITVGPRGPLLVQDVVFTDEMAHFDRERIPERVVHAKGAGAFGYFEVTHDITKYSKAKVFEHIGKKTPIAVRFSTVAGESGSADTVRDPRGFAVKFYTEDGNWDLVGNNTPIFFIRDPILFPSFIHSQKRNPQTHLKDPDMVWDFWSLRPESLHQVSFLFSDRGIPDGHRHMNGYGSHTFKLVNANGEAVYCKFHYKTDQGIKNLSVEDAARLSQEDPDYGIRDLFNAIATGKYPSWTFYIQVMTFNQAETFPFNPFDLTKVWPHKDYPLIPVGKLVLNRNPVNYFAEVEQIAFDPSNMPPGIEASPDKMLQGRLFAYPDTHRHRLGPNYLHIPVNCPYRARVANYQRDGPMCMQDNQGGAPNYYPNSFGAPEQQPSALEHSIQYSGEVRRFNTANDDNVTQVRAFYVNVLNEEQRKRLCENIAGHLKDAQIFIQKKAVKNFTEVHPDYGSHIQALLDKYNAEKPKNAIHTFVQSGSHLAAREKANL
Description: as §1, §2

PRRC2A = target: T5, PRRC2A (human, UniProt P48634 1-2157)
T5 construct: also called NP_004629.3 (+1)
T5 sequence (P48634 whole entry): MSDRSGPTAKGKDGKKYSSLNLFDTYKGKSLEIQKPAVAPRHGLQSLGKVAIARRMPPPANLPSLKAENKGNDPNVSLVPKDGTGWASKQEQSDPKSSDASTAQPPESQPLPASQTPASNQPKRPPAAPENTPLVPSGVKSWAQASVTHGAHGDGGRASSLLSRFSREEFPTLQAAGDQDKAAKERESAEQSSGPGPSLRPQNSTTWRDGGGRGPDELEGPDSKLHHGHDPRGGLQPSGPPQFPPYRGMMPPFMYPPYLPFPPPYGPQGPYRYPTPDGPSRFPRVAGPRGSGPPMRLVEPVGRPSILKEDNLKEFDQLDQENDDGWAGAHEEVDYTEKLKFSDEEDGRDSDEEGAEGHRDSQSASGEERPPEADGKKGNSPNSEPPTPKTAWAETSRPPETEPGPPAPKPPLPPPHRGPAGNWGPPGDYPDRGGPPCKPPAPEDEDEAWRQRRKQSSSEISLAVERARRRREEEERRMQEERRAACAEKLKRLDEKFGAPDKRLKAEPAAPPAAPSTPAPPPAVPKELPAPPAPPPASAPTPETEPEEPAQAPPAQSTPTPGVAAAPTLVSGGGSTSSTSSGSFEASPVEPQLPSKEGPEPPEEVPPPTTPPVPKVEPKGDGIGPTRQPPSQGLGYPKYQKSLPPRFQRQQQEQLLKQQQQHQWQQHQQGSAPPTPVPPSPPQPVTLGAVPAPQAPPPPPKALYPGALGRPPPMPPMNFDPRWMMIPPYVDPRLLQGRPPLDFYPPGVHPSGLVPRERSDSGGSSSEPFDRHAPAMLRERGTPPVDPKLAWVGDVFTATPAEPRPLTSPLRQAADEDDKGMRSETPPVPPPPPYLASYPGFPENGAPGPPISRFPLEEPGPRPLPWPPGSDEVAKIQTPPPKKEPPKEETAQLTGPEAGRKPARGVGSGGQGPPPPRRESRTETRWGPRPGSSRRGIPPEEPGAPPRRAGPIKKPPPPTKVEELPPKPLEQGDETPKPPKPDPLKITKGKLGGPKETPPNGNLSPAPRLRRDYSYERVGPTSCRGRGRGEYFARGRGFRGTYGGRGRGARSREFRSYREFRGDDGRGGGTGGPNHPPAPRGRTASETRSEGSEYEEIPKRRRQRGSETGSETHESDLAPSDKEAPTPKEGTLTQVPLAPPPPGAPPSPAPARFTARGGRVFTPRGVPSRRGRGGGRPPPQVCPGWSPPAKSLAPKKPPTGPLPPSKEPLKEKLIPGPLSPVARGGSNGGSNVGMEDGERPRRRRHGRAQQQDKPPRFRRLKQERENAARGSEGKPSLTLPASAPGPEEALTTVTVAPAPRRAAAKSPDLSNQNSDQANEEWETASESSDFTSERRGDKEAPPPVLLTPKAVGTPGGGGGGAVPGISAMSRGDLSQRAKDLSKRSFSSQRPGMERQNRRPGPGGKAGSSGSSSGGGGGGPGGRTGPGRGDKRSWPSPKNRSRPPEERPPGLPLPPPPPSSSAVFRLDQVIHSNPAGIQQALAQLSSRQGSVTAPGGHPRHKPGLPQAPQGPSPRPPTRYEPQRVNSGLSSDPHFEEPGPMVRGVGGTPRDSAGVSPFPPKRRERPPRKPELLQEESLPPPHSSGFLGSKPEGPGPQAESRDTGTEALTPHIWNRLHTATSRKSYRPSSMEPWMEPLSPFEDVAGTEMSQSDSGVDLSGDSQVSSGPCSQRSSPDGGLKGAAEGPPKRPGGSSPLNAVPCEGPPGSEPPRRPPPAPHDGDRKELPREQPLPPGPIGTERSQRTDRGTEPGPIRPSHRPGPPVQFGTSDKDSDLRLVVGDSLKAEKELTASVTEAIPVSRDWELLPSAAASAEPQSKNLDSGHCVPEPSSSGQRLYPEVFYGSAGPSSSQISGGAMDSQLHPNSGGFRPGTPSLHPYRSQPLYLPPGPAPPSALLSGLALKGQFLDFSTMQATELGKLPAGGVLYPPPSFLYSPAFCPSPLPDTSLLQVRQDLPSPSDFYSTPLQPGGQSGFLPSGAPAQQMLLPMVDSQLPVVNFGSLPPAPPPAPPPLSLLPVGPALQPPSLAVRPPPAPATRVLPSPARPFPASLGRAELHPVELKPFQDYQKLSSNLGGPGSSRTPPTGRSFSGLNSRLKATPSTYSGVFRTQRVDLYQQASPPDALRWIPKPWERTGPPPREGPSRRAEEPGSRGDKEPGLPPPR
Description: as §1, §2

GGCT = target: T6, GGCT (human, UniProt O75223 1-188)
T6 construct: also called NP_076956.1
T6 sequence (looked up): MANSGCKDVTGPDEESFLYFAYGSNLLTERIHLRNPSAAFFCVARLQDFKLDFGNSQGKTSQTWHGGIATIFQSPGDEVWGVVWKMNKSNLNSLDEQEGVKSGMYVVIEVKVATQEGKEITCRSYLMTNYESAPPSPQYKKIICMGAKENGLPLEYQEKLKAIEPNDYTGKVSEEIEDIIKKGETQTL
Description: as §1, §2

B1: C-terminal FLAG tagged B3GNT2 (enzyme, human, UniProt Q9NY97 1-397, looked up)
chain: MSVGRRRIKLLGILMMANVFIYFIMEVSKSSSQEKNGKGEVIIPKEKFWKISTPPEAYWNREQEKLNRQYNPILSMLTNQTGEAGRLSNISHLNYCEPDLRVTSVVTGFNNLPDRFKDFLLYLRCRNYSLLIDQPDKCAKKPFLLLAIKSLTPHFARRQAIRESWGQESNAGNQTVVRVFLLGQTPPEDNHPDLSDMLKFESEKHQDILMWNYRDTFFNLSLKEVLFLRWVSTSCPDTEFVFKGDDDVFVNTHHILNYLNSLSKTKAKDLFIGDVIHNAGPHRDKKLKYYIPEVVYSGLYPPYAGGGGFLYSGHLALRLYHITDQVHLYPIDDVYTGMCLQKLGLVPEKHKGFRTFDIEEKNKNNICSYVDLMLVHSRKPQEMIDIWSQLQSAHLKC
notes: Overexpressed in cells and pulled down from the lysate with mouse anti-FLAG antibody; also called C-FLAG B3GNT2; C-term flag; not shown: C-terminal FLAG tag
Q: With B1 as the binder, how does the “co-IP mass spectrometry count” value (RBM39) read?
A: Its value is 5.

Q: What about the “co-IP mass spectrometry count” value (PRBP1) of the same binder?
A: Its value is 9.

Q: What about the “co-IP mass spectrometry count” value (HNRNPK) of the same binder?
A: The value was 12.

Q: What about the “co-IP mass spectrometry count” value (FAU) of the same binder?
A: Its value is 7.

Q: What about the “co-IP mass spectrometry count” value (CAT) of the same binder?
A: The value was 0.

Q: What about the “co-IP mass spectrometry count” value (PRRC2A) of the same binder?
A: Its value is 5.

Q: And the “co-IP mass spectrometry count” value (GGCT)?
A: Its value is 0.

— patent US20240261333A1 (published 2024)
